Measurements: patent US20240425603A1 (Janssen / Centocor, published 2024)
Where “and” joins values, the source holds several entries; their conditions need not be identical. Identical values can stand only once.

How the values were obtained:
[1] = biological target: T1, cynomolgus monkey VEGFR1 (soluble antigen of the KinExA and SPR affinity assays) (cynomolgus monkey); experiment: SPR
[2] = biological target: T1, cynomolgus monkey VEGFR1 (soluble …); experiment: KinExA, solution
Experimental: (§1) Kinetic exclusion assay (KEA; KinExA) was used to analyze the binding of anti-VEGFR1 antibodies to human, mouse and cynomolgus monkeys VEGFR1. KEA is a fluorescence-based solution method, and it is described in detail in the literature (Darling and Brault, 2004). To measure the affinity of an interaction, a series of solutions with a fixed concentration of one interactant (A) and varying concentrations of another interactant (B) are prepared and allowed to reach equilibrium. After equilibration, the concentration of free A is determined by flowing the equilibrated mixture through a column packed with beads modified with reactant B. Free A binds to the beads and is then detected using a fluorescently labeled polyclonal antibody.
(§2) Briefly, fixed concentrations (300 pM, 60 pM, 12 pM, 2.4 or 0.5 pM) of Ab were used to prepare a serial dilution of the antigen (2 nM to 0.52 pM, or 800 pM to 5.37 fM). The complex titrations were incubated at RT to reach binding equilibrium for at least 2 days. After incubation, the samples were run on the KinExA3200 or KinExA4000 instrument to assess free antibody in the reaction. During these studies some of the data were rejected because the experiments failed or failed the acceptance criteria. For mouse VEGFR1 the 60 and 300 pM concentrations were rejected due to high titrant related NSB. The dissociation equilibrium constant, (KD), was determined using the n-curve analysis feature of the KinExA Pro software. This program uses nonlinear least-square regression analysis of the globally fitted data to a 1:1 binding model. (CI=confidence interval).

[3] = biological target: T2, mouse VEGFR1 (soluble antigen of the KinExA and SPR affinity assays) (mouse, UniProt P35969 23-759, limits assumed); experiment: KinExA, solution
T2 sequence (looked up): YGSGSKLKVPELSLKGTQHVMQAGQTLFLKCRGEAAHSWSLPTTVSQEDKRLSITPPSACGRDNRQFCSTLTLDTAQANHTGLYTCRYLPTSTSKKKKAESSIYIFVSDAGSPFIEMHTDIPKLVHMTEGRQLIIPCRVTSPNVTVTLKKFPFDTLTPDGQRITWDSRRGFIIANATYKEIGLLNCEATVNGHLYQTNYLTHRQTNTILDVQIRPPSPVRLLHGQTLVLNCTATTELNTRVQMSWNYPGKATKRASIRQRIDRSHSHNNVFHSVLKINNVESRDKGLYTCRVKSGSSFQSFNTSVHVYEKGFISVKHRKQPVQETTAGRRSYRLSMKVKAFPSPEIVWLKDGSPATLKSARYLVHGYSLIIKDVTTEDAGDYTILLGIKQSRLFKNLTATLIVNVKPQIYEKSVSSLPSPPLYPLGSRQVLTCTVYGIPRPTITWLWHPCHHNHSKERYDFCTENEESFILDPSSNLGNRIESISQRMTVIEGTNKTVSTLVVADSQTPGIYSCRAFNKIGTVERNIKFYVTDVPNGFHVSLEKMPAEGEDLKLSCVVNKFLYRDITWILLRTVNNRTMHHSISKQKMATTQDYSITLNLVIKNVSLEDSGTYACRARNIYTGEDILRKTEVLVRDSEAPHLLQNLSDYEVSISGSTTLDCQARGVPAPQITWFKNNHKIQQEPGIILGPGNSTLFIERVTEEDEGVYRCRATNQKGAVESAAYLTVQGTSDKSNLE
Experimental: as §1, §2

[4] = biological target: T3, NECTIN1 Isoform Gamma (NM_203286.1) (human, UniProt Q15223-3 31-352); experiment: Retrogenix cell microarray, fixed HEK293 cells; blank cells in Table 32 (topology TS and S)
T3 construct: whole, on cells
T3 sequence (looked up): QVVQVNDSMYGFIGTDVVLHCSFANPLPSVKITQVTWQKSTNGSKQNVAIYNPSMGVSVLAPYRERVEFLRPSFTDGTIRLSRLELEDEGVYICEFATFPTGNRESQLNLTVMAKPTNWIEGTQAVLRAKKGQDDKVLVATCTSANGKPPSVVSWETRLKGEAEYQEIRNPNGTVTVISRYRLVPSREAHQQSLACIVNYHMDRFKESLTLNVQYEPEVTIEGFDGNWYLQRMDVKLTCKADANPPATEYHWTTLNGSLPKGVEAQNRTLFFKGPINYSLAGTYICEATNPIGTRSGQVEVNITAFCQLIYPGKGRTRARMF
Experimental: (§3) This human cell microarray methodology has been previously described in the literature (Freeth, J. et al, SLAS Discovery, 25 (2), 223-230, 2020). Primary screening was performed on slides arrayed with fixed HEK293 cells with each spot of HEK293 cells expressing either a unique protein from the cell surface-ome, a cell surface tethered human secreted protein, or a heterodimeric human cell surface receptor. In total, 5,528 unique gene products were represented in this primary screen (4,103 human plasma membrane proteins (+some untethered secreted proteins)+1,425 cell surface tethered human secreted proteins). Briefly, slides containing fixed transfected HEK293 cells were overlaid with a solution of test antibody (2 μg/mL), incubated, and washed. Binding was assessed using AlexaFluor647-conjugated anti-human IgG Fc detection antibody and fluorescence quantitation on ImageQuant. […] Located in the ER, off-target binding to CRELD2 was of less concern. Nectin-1, FGFR2, and ISLR, on the other hand, display broad tissue expression profiles. Cross-reactivity to these proteins is undesirable because binding to these targets might have a significant impact on pharmacokinetic and biodistribution profiles of the molecules. This off-target binding was subsequently confirmed by flow cytometry on live HEK293 cells transiently expressing these ‘off-target’ proteins identified in the primary screen.

[5] = biological target: T4, human VEGFR1, full length, over-expressed on cells (human, UniProt P17948 27-1338); experiment: cell binding assay (column head prints IC50)
T4 construct: on CHO-K1 or HEK cells; also called hVEGFR1; CHOK1/ human VEGFR1

[6] = biological target: T5, human VEGFR2, over-expressed on HEK293 cells (human, UniProt P35968 20-1356); experiment: flow cytometry, single concentration (Table 21)
T5 construct: whole, on cells; also called huVEGFR2; hVEGFR2

[7] = biological target: T3, NECTIN1 Isoform Gamma (NM_203286.1); experiment: Retrogenix cell microarray, fixed HEK293 cells, 2 ug/mL antibody; topology TS
Experimental: as §3

T5 sequence (P35968 20-1356): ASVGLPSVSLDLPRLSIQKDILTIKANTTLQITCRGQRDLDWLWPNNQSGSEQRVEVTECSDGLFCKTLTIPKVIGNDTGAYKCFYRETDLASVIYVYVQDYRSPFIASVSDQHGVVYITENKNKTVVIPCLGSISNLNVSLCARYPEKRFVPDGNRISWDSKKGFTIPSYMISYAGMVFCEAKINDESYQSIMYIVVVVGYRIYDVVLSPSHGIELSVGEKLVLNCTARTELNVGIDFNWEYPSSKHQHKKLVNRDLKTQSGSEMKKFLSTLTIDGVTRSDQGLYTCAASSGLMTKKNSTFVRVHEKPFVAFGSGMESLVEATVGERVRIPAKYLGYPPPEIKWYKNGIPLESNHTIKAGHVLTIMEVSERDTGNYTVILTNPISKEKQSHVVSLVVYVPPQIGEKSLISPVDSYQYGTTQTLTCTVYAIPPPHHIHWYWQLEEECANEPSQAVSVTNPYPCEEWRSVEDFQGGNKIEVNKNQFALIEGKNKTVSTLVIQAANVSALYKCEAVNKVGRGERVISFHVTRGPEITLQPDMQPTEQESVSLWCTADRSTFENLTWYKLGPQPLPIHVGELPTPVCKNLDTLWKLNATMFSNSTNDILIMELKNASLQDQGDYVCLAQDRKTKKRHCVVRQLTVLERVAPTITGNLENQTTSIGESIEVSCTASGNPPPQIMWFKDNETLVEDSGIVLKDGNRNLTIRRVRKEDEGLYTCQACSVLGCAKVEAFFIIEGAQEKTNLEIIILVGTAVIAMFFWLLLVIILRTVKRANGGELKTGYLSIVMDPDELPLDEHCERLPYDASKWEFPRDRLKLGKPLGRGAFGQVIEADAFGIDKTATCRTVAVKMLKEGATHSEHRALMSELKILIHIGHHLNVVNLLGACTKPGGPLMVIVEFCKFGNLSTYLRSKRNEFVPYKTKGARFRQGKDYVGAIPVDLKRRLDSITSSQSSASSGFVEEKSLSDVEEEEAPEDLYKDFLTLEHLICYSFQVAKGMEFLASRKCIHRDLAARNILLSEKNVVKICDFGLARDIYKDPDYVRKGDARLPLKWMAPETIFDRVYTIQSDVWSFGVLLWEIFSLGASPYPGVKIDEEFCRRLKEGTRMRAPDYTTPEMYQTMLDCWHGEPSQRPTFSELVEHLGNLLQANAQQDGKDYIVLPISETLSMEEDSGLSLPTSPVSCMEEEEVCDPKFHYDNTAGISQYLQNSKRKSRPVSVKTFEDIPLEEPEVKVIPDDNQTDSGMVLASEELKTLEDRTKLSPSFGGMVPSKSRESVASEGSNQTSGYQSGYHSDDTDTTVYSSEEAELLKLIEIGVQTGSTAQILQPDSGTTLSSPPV
T4 sequence (P17948 27-1338 limits assumed): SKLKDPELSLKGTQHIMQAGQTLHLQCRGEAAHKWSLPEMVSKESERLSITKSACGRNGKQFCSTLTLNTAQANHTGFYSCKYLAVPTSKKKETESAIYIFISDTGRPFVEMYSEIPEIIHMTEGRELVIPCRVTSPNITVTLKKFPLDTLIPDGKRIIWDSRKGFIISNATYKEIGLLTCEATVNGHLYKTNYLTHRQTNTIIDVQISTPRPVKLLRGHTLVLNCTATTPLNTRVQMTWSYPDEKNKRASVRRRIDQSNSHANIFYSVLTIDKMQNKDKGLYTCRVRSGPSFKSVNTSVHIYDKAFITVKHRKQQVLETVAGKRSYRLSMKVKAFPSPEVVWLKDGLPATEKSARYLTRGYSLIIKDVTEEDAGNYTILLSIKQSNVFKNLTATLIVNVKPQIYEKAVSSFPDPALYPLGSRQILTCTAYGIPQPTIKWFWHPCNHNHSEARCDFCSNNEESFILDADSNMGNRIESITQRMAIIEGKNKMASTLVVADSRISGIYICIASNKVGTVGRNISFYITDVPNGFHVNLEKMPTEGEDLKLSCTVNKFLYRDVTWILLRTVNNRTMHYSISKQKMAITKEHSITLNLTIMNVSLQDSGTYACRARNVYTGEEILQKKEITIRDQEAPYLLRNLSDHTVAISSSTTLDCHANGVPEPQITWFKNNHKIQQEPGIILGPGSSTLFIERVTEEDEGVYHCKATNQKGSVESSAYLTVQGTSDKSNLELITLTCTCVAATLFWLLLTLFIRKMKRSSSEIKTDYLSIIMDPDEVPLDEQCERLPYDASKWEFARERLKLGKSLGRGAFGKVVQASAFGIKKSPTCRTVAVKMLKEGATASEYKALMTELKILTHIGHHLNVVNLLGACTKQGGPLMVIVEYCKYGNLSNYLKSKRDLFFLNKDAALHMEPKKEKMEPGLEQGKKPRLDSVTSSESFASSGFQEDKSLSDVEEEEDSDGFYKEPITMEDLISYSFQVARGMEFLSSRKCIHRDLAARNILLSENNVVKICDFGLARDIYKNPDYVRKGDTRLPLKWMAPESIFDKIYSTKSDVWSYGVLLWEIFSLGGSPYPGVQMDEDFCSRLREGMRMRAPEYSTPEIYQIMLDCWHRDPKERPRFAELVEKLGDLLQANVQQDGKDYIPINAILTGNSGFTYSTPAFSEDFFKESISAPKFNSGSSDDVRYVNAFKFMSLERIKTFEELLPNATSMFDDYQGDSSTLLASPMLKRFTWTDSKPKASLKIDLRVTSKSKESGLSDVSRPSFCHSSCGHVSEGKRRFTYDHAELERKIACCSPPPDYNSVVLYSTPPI

B1: VGFB82 (antibody, human IgG1, lambda, L234A L235A, V domains shown)
VH: EVQLLESGGGLVQPGGSLRLSCEASGFDFSTYAMNWVRQAPGKGLEWVATINSEGTITSHAPAVKGRFTISRDNSKNTAYVQMNSLRAEDSAVYYCSSTTGTTHGMDVWGRGTTVTVSS
VL: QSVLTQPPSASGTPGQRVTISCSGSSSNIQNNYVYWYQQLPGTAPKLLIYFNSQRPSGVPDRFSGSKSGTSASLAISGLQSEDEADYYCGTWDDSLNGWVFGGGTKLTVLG
notes: human IgG1 (L234A/L235A/D265S)
[1]
  Kd: 0.038 nM and 0.023 nM
[2]
  Kd: 0.0003 nM
[3]
  Kd: 0.023 nM
[4]
  binding result: no binding (tested: 2 µg/mL)

B2: VGFB54 (antibody, human IgG1, lambda, L234A L235A, V domains shown)
VH: EVQLLESGGGSVQPGGSLRLSCTASGFNFEDYGMNWVRQAPGKGLDWVSSINRNGDISTYHVDSVKGRFTISRDNSKNTLYLQMNSLRAEDTAIYYCTKNHDYHGMDVWGQGTTVTVSS
VL: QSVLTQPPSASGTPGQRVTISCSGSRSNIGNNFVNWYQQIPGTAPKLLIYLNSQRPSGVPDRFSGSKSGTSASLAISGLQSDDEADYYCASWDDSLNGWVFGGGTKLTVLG
notes: human IgG1 (L234A/L235A/D265S), lambda, 2H:2L; from OmniChicken
[1]
  Kd: 0.016 nM and 0.018 nM
[5]
  IC50: 0.198 nM
[4]
  binding result: no binding (tested: 2 µg/mL)

B3: VGFB78 (antibody, human IgG1, lambda, L234A L235A, V domains shown)
VH: EVQLLESGGGLVQPGGSLRLSCAASSFTFYNYDMTWVRQAPGKGLEWVAGIGTSGTDMYYADSVKGRFTISRDNSKNTLYLQMNSLRAEDTAIYYCAKDYYYYGMDVWGLGTTVTVSS
VL: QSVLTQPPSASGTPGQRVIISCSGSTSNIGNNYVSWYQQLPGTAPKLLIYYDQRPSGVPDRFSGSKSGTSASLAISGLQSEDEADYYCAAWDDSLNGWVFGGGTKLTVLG
notes: as for B1
[2]
  Kd: 0.00071 nM
[3]
  Kd: 0.00385 nM

B4: VGFB71 (antibody, human IgG1, lambda, L234A L235A, V domains shown)
VH: EVQLLESGGGLVQPGGSLRLSCEASGFIFRDYNMNWVRQAPGKGLEWVSIITNDGSSTAYSDSVKGRFTISRDNSKNSLYLQMNSLRAEDTAIYYCVKVYYGMDDWGQGTTVTVSS
VL: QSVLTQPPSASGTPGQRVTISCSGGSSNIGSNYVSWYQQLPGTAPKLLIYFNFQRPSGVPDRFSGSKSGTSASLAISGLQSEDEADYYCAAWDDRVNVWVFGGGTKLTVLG
notes: as for B1
[6]
  binding result: no binding (tested: 10 nM)
[7]
  binding result: binds
